# Experiments:
# Type in all cases: cell-based, human
# [1] = test system: ctDNA chromatid integration in MM1s, MIA and HCT116 cell lines; assay: Effect of reverse transcriptase or integrase inhibitors on ctDNA chromatid integration; conditions: HCT116 treated prior to adding ctDNA, compared to no treatment control
# Experimental: To evaluate functionally the role of retrotransposons in horizontal gene transfer of ctDNA, experiments were conducted to test the impact of inhibiting reverse transcriptases or integrases on ctDNA integration. Multiple myeloma (MM1s), pancreatic cancer (MIA), and colon cancer (HCT116) cell lines were treated with the reverse-transcriptase inhibitors zidovudine or didanosine, and with the integrase inhibitor raltegravir prior to adding the ctDNA to culture media.
# [2] = test system: pancreatic cancer cell lines (MIA Paca-2 [MIA] and PANC1); assay: Cell viability: sensitivity to gemcitabine after culture with patient plasma
# Experimental: For the corresponding DNase I-treated samples, plasma was treated with DNase I for 10 minutes. GR: Gemcitabine resistant.
# Gemcitabine (GEM)-sensitive pancreatic cancer cell lines (MIA Paca-2 [MIA] and PANC1) were cultured for 24 h with DNase-treated or non-treated plasma from (GEM)-resistant (GR) patients or control plasma.
# Cell viability: Cell viability assays were performed in 96 well, black, clear-bottom microplates. For MM cell line studies, 3×10^4 cells were cultured for 24 hours with media containing 10% human plasma of a bortezomib-resistant or-sensitive patient or a control non-cancer patient. Cells were then cultured for 24 hours with titrating concentrations of bortezomib (doses: 0, 5, 10, 15, 50 nM; Sigma). For PC cell lines viability studies, 1×10^4 cells were incubated for 24 hours with media containing plasma of a gemcitabine-resistant patient or non-cancer patient. Subsequently, titrating concentrations of gemcitabine (doses: 0, 10, 25, 50, 100, 200 μM; Sigma-Aldrich, MO) were added to the culture media and cells were then incubated for 96 hours. CellTiter-Blue Cell Viability Assay was used to evaluate cell viability according to the manufacturer's instructions (Promega). Cell viability was measured by a fluorescent protocol in an microplate reader. Experiments were performed in triplicate of 3 independent studies.
# [3] = test system: MM1s (multiple myeloma) cell genome; assay: ctDNA coculture with MM1s cells, whole genome sequencing: genomic insertion sites, transposons at insertion points and SNVs (multiple myeloma); conditions: for Gene: gene at identified genomic insertion site; for Gene / Location / No. SNP / Chr position: multiple myeloma; for Location / Chr position: identified genomic insertion site; for Location: chromosome; for No. SNP: number of single nucleotide variants (SNVs or SNPs) identified
# Experimental: The integration of ctDNAs into the host cell genome was evaluated. ctDNA was extracted from patient plasma, cultured for 24 hours with cells of a matching cancer cell type or non-matching cancer cell type, and whole genome sequencing was performed. The cell lines used were MM1s (multiple myeloma, MM) and MIA (pancreatic cancer, PC).
# Single nucleotide variants (SNVs) unique to the ctDNA that were found in the host cell genome under matching coculture conditions were identified.
# The sequence data was used to reconstruct genomic contigs for each experimental condition by de novo assembly. […] Coculture contigs carrying a ctDNA insertion were identified using NucDiff analysis. BLAST alignment analysis further validated the gain of ctDNA fragments in coculture conditions and identified the transition points of ctDNA insertion (FIGS. 3A-3C). […] The remaining 20% inserted into a chromosomal location distinct from their site of origin.
# Experiments were designed to identify the presence of transposons in ctDNA fragments. To map ctDNA genomic junctions more precisely, a PACBIO probe was ligated to multiple myeloma and pancreatic cancer ctDNA samples to label their 5′ and 3′ ends. Whole-genome sequencing of DNA from cells with ctDNA genomic integration was done using the Illumina platform. De novo assembly was performed on the sequencing output. ctDNA contigs containing PACBIO adaptor were then matched to those contigs containing inserted ctDNA sequences identified in the coculture experiments. Transposable element on ctDNA sequences at the insertion points (<100 nucleotides from transition point between cell and ctDNA) were detected and classified using RepeatMaster.
# A search was conducted for transposons that preferentially target cells of matching tumor types. The lists of transposons identified at the ctDNA insertion point in matching and mismatched coculture conditions were compared (e.g., MM ctDNA with MM cells or PC cells). Transposons were selected that were uniquely or preferentially inserted in the matching conditions.
# In multiple myeloma, AluSp, MER11, MER11C, AluJb, and L2a, among other subfamilies of retrotransposons were identified at the MM ctDNA insertion sites (FIG. 5B and TABLE 7).
# Whole-genome sequencing and Whole exon sequencing: ctDNA was extracted from 10 MM and 10 PC patients. DNA from CD138 (+) cells and from cell lines used in in vitro experiments (MM1s and MIA) was extracted using Blood & Cell Culture DNA Mini Kit (Quiagen, MD). DNA from […] paraffin embedded pancreatic tumors was obtained using QIAamp DNA FFPE Tissue Kit Print (Qiagen, MD).
# After extraction, ctDNA was ligated to the PACBIO adaptor ([…]) using the ABM DNA Library Prep Kit for Illumina Sequencing (Applied Biological Materials Inc. Canada). PACBio-labeled ctDNA and regular ctDNA were subjected to standard methods for library preparation and sequencing using Illumina and Agilent protocols, respectively. Applied Biological Materials Inc. prepared the libraries and performed whole-exon and -genome sequencing. The average target coverage was 50×.
# Identification of transposable elements and its nucleotide variants: To determine the locations of transposable-like regions in contigs, sequences were analyzed and transposable elements (TEs) were identified and classified using RepeatMasker version 4.1.0 and the Dfam database (release 3.1) of repetitive DNA families was used as a reference for identifying repeats in ctDNA contig sequences that were part of qualifying structural events. For each repeat sequence identified by RepeatMasker, the overall frequency of the specific repeat (e.g., for AluSp or L1) and their parent class (e.g., SINE) was computed.
# Once the TE elements were identified, hit repeats/TE sequences, unique contigs for all samples, and insertion sequence were aligned with MAFFT software version. […]
molecule,measurement,setting,value
O=c1[nH]cnc2c1ncn2[C@H]1CC[C@@H](CO)O1 [didanosine],ctDNA chromatid integration,[1],significantly reduced
Nc1ccn([C@@H]2O[C@H](CO)[C@@H](O)C2(F)F)c(=O)n1 [gemcitabine],response to gemcitabine,"[2]; cells cultured 24 h with non-DNase-treated GR patient plasma, vs control serum",became resistant
same,response to gemcitabine,[2]; cells cultured with DNase-treated GR plasma,restored the inherent sensitivity
same,response to gemcitabine,[2]; control serum treated with DNase,increased resistance
Cc1nnc(C(=O)NC(C)(C)c2nc(C(=O)NCc3ccc(F)cc3)c(O)c(=O)n2C)o1 [raltegravir],ctDNA chromatid integration,[1],significantly reduced
Cc1cn([C@H]2C[C@H](N=[N+]=[N-])[C@@H](CO)O2)c(=O)[nH]c1=O [zidovudine],ctDNA chromatid integration,[1],significantly reduced
"3 (nucleic acid, listed as Homo sapiens) TCTCACCACCTCTACTACTGCCTATCTGCATCTGGGTGCACGTCCTCTGCTATTCCTTCTGTTTCTACAGAAGCTGTCCATATTTCTAAGGCTAATCCCTTGCATTTTGGTACCAGACTTCCCTGACCTACACAAAGATGATCACCCCCCAAAATTGCCTTTCTTTCCTGCATCAAGTTTTTTCTTCTCTACTGTATTATTCCTATTGCACATTAGCCCAAAAAATGCCGTTGTTTTTCCATCGGTAAAAAAAAAAAATAGAGAGAAAAAGAAAAATAATCCATTGCCGCCAATCTATCTTCTAGTCATTTTTCCATTTCTCTGTTCTCCATTCTGCATAAACCATTTTTACTTGAATTGTTTATACTTGCTGTTTACAACAAACCTCCTCTTTCTCTCCACCCCAATCAGATTTTGGTCCACATTCCTCATGCAGTGGTCAGTCCTTGGTCCTCAACCTAGTCTAGCCTGCTTGCTGGTGGGTGTGCTCTCGGGGCATTTGCTTGTGTTTGCACGACAGCTCAGTCCCTCACTTCTCTCAAGTCTTTGCTAATAACACTCTTGCATCCAAGTCTTCCCTGACCTGCTACTTAAAAACAACTCACCCCCACCCCTAGAAATCCCTATCCTCTTCCCTACGCTTTATTTTTCTCCATAATACTTATCACCATGTAGCTGAACATGTATTTTACTCACTTTTTTTTATATTGTCCATCTTCCCTCAGTGAATTGAAAGCTCCATGAGGGCAGGAGGTTTTGTTTATTGTGTTTACTGCTTTATCCCTAGCACCCAGCACAGCATATGTGATATAGTAGACACTCAATACAAATCTGATGTGTGTGTGTCT",Gene,[3],AKAP6
same,Location,[3],Chr4
same,No. SNP,[3],Many
"THE1C (nucleic acid, listed as Homo sapiens, misc_difference 287 a, c, t, g, unknown or other) DNA: TGATATGGTTTGGCTGTGTCCCCACCTAAATCTCATCTTGAATTGTAGTTCCCATAATCCCCATGTGTCATGGGAGGGACCCAGTGGGAGGTAATTTAATCCTGGGGGCAGTTACCCTCCTGCTATGTGTGTGTGTGTGTGTGTGTTCTCACGAGATCTGATGGTTTTATAAGGGGCTTTTCCCCCTTCGCTCGGCACTTCTCCTTCCTGCCGCCATGTGAAGAAGGACGTGTTTGCTTCCCCTTCCGCCATGATTGTAAGTTTCCTGAGGCCTCCCCAGCCATGCNGAACTGTGAGTCAATTAAACCTCTTTCCTTTATAAATTACCCAGTCTCGGGTGTGTCTTTATTAGCAGCGTGAGAACGGACTAATACA",blast orientation,"[3]; TABLE 7, multiple myeloma co-culture, BLAST alignment orientation",Plus/Minus
same,blast chr,"[3]; TABLE 7, multiple myeloma co-culture, chromosome with the longest result for BLAST analysis of the full contig",chr14
same,Transposon orientation,"[3]; TABLE 7, multiple myeloma co-culture, compared with the human reference genome",direct
same,Distance from insertion,"[3]; TABLE 7, multiple myeloma co-culture, distance between insertion and the transposon (0 if they overlap)",0
same,Location relative to insertion,"[3]; TABLE 7, multiple myeloma co-culture, location of the transposon relative to the insertion on the contig",intersect
"24 (nucleic acid, listed as Homo sapiens) GATGAATGCACATATCACAAAAAGTTTCTCAGATTGCTTCTGTCTAGATTTTATGTGAAGTTATTTCCTTTTCTACCATAGAACCCAAAGCACTTATAATGTCCCCTTGCAGATTCTACAAAAAGAATGTTTCAAAACTGCTCAATCAAAAGAAAGGTTCAAATTTGTGAGATGAATGCTCGCATCACCAAGAAGTTTCTCAAAATACTTCTGTCTAGTTTTTATGTGAAGACATTTCTTTTTCCGTGATAGGTCTCAAAATGATCAAAATTTCCACTTGCAAATTCTACAAAAAGAGAGTTTCAAAGCTGCTCAATCAAAAGAAAGGTTTATATCTGTGAGATGAACACACACTTCACAAAGCAGTTTCTAAGATTTCTTCTGCCTAGATTTTATGTAATGATATTTCCTTTTCTACCATACTTTGCAAACTGCTCCAAATGTCCACCTGTAGATTCTACAAAAACAGTGTTTCCAAACTGCTCAATCAAAAGAAAGGTTAACTCTGTGAGATGAACTCACACATCACAAAGAAGTTTCTCAGAATTCTTCTGTCTAGTTCTAATGTGAAGATATTTCCTTTTGGACCAGAGGCCCCAAGGCTATCGAAATGTCCCCTTGTAGATTCTACAAAAAGAGTATTTCAAAACTGGTCCATCAAGAGAAAGGCTCAACTCTGGGAGATGAATGCACACATCACAAAGAAGTTTCTCAGAATGCTTCTATCTAGTTTTTACATGAAGCTATTTCCTTTTCCACCATAAGCCTCAAAGCGCTCCAAATGTCCACTTGCAGGTTCTGCAAAAAGAGAGTTTCCAAAGTTCTCAATCAAAAGAAACGGTTAACTCTGTGAGATAAATGCACACATCACAAAGAAGTTTCTCAGAATTTTTCTGTCTAGTTTTTGTGTGAAGATATTTCATTTTC",Gene,[3],AK311573
same,Location,[3],Chr21
same,Chr position,[3],10749086
same,No. SNP,[3],49
"23 (nucleic acid, listed as Homo sapiens) TTCATCTTACAGAGATAAACATTTATCTTGATTCAGCAGTTTGGAAACACTGTTTTTATCCATTCTGTGAATGGACATTTGGGAGTTCATTAAGGCACACATGAAAAGGTGTATATCCCAGGGTAAAAACTAGAAGGAAGCTATCTGAGAAACCACTCTGTGGTGTGTGCATTGATCTCGCTGATTTAAAGCTTTCTTTTGATTCAGCAGTTTGGAATCACTGTTTGTGCTCATTCTGTAAATGGATATTTGGGAGCTCATTGAGGTCAATGGCAAAAAAGTGAATAACTGAGGATAAAAACTAGAAATAAGCTATCTGAGAAACGGATTTATGATGTGTGCATTCATCTCGCAAAATTAAACATTTCTTTTCCTTCAACAGTTTGGAAACACGGTTTTTATAGGATCTGCAAAGGGATATTTTGGAGCACATTGAGGTCTATGGTGTAAAAGAAAATATCTTCAGATAAAACCTAGAAAGAAGCTTTCTGAGAAATTGCATTTTGATGTGTGCATTCATCTCACAGAGTTAATACTTTTTTTTGATTCACCAGTGTGGATACACTGTTTTTGTCCATTCTGCTAATGGACCTTTGGGGGCTCATTTAGGCCAATGGCAAAAAAGTGAATATCCCAGGATAAAAACTAGAAGGAAGGTATCTGAGAAACTGCTATGTGATGTGTGCCATCATCTCACAGTCTTAAAAGTTTCTTTTCATTCACCAGTTTGGAAACAGTGTTTTTGTAGAATCTGCAAAGTCATATTTTTGAGT",Location,[3],Chr16
same,Chr position,[3],32534349
same,No. SNP,[3],9
